According to PMC6834678:

Key:
[1] = target: C1q (of human serum) (human (endogenous in human serum)) (UniProt P02745)
[2] = target: DHS-IgG4 (class-switched IgG4 variant of Trastuzumab with the DHS mutations) (human); assay: SPR; antibody variants immobilised on CM5 chip (~500 RU, amine coupling); hFcRn:hβ2m dimer injected at serial dilutions (1000-40 nM) in PBS, pH 5.8, 30 μL/min; KD from steady-state isotherms or from kinetics with a 1:1 Langmuir mass transfer model
[3] = target: EDH-IgG1 (Trastuzumab IgG1 with V264E, L309D, Q311H) (human); assay: as above
[4] = target: DHS-IgG3 (class-switched IgG3 variant of Trastuzumab, G3m16 allotype with H435, with the DHS mutations) (human); assay: as above
[5] = target: wt-IgG3 (class-switched IgG3 variant of Trastuzumab, G3m16 allotype with H435, wild-type Fc) (human); assay: as above
[6] = target: N434S-IgG1 (Trastuzumab IgG1 with N434S) (human); assay: as above
[7] = target: wt-IgG4 (class-switched IgG4 variant of Trastuzumab, wild-type Fc) (human); assay: as above

Sequence of UniProt P02745 (P02745 23-245, chain 1 of 3): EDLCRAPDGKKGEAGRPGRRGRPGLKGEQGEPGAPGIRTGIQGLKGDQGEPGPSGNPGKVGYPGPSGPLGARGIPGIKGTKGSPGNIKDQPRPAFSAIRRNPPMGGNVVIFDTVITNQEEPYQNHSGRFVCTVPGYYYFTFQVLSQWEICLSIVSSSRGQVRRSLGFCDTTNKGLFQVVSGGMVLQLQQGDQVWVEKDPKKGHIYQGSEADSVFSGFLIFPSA
Sequence of UniProt P02745 (P02746 28-253, chain 2 of 3, further chain): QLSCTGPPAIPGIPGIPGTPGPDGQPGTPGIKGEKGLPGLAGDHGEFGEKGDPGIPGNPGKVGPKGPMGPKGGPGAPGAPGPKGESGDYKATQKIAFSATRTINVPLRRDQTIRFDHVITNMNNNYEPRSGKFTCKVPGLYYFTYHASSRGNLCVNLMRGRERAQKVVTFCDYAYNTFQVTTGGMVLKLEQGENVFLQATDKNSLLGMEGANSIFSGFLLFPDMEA
Sequence of UniProt P02745 (P02747 29-245, chain 3 of 3, further chain): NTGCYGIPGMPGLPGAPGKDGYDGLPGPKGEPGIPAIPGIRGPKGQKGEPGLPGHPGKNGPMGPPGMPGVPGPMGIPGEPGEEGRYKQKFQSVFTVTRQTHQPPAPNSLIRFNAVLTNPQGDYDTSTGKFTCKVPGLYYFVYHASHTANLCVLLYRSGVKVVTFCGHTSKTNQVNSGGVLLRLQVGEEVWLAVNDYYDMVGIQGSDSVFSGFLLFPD

Row | Substance | CDC of Raji cells with 25% human serum against antibody concentration; potency (name of the quantity not given) [1] [µg/mL] | Kd [2] [nM] | Kd [3] [nM] | Kd [4] [nM] | Kd [5] [nM] | Kd [6] [nM] | Kd [7] [nM]
1 | LS-Rituximab (anti-CD20 IgG1 with M428L/N434S) (antibody) | 1.9 | – | – | – | – | – | –
2 | DHS-Rituximab IgG1 (anti-CD20 IgG1 with L309D/Q311H/N434S) (antibody) | 0.7 | – | – | – | – | – | –
3 | human FcRn/human β2m complex (hFcRn:hβ2m dimer) (from UniProt P55899 24-297; P61769 21-119) | – | 832 | 487 | 739 | 4080 | 220 | 2460
